B1: PCDHGA10 (parent)
chain: FHELQMQVTASDSGDPPLSSNVSL

Variants of: B1
Test: protein stability index of a GFP-peptide fusion (GPS, HEK-293T) (PSI 1-6); higher = more stable
Details: c terminus: a fixed tail appended
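Note: lentivirally expressed fusions sorted by FACS into six bins by GFP to DsRed ratio, PSI derived from sequencing read proportions per bin multiplied by bin number.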

Protein stability index, by site and new letter:
Q7: R 1.99; A 2.04; F 2.66; K 1.67; H 2.09; L 1.89; E 2.54; P 1.71; I 2.62; W 2.57; N 2; M 1.7; S 1.74; C 1.6; Y 2.69; G 2.78; T 2.33; D 3.06; V 1.82
E3: F 2.39; W 2.54; T 1.82; R 1.85; D 2.07; G 2.69; C 2.53; I 2.38; Q 1.85; S 1.59; P 1.97; L 1.92; V 1.6; K 2.21; A 1.91; Y 2.26; N 1.7; M 2.31; H 1.75
A10: S 2.35; T 2.13; E 2.7; D 2.62; W 1.86; C 1.74; H 2.51; K 2.41; N 1.99; M 1.49; F 1.97; L 1.29; V 1.26; Y 2.02; R 1.48; Q 2.44; G 2.24; P 2.88; I 2.38
Q5: A 2.26; V 2.04; T 2.16; E 3.23; H 2.44; F 3.27; M 1.91; Y 1.87; R 2.42; S 2.11; I 1.82; K 2.13; N 2.86; P 2.23; L 1.4; G 2.73; D 3.32; C 1.88; W 3.59
V8: L 2.15; F 1.95; S 3.07; Y 2.01; P 3.33; Q 3.51; M 2.28; I 2.29; E 3.94; N 3.72; G 3.3; R 3.2; W 1.25; C 2.56; H 2.7; T 2.81; K 3.06; A 3.11; D 4.05
M6: P 3.87; L 2.58; G 3.07; F 1.4; Q 3.54; A 2.84; Y 2.46; W 2.02; T 3.32; S 3.29; N 3.46; C 2.47; H 2.98; V 2.56; K 2.52; I 1.65; R 3; E 3.77; D 3.81
T9: I 2.09; K 2.65; Y 1.86; Q 2.73; C 1.93; F 2.63; W 2.95; G 2.86; A 2.55; E 3.53; M 2.18; N 2.83; H 2.43; V 2.12; L 1.99; S 2.16; D 2.65; R 2.88; P 3.32
L4: T 2.97; H 2.87; W 2.2; S 3.46; A 2.76; M 2.24; R 2.77; Q 3.36; P 2.57; C 2.73; N 3.6; I 2.28; Y 2.04; K 2.73; F 1.39; D 3.84; E 4.19; G 2.67; V 2.84
S11: H 2.16; E 2.82; D 2.3; G 2.13; I 1.88; A 2.22; F 1.55; C 2.12
H2: T 2.81; Q 3.43; W 1.78; R 3.85; Y 2.31; S 3.83; V 1.92

From the supplement of paper PMC10567573
